Results from patent publication CN114426582A (SHAANXI PULSE ELEMENT BIOTECHNOLOGY LTD COMPANY, dated 2022).

B1: 重组4C11抗体轻链4C11mk (transfected alone) (other)
light: DIQMTQTTSSLSASLGDRVTISCRASQDISNYLNWYQQKPDGTVKLLIYYTSRLHSGVPSRFSGSGSGTDYSLTISNLEQEDIATYFCQQGNTLPYTFGGGTRLEIRRADAAPTVSIFPPSSEQLTSGGASVVCFLNNFYPKDINVKWKIDGSERQNGVLNSWTDQDSKDSTYSMSSTLTLTKDEYERHNSYTCEATHKTSTSPIVKSFNRNEC
notes: Light chain only, with no heavy chain; tested as 293T culture supernatant
B2: 抗神经特异性烯醇化酶的单克隆抗体4C11 (hybridoma-derived) (antibody, V domains shown)
VH: EVKLVESGGGLVQPGGSLRLSCATSGFTFTDYYMSWVRQPPGKALEWLGFIRNKANGYTTEYSASVKGRFTISRDNSQSILYLQMNTLRAEDSATYYCARDGDGSARWGQGTLVTVSA
VL: DIQMTQTTSSLSASLGDRVTISCRASQDISNYLNWYQQKPDGTVKLLIYYTSRLHSGVPSRFSGSGSGTDYSLTISNLEQEDIATYFCQQGNTLPYTFGGGTRLEIR
notes: Mouse hybridoma antibody; It was tested as hybridoma supernatant or ascites; also called 4C11单克隆抗体
B3: 重组4C11抗体重链4C11mG1 (transfected alone) (other)
heavy: EVKLVESGGGLVQPGGSLRLSCATSGFTFTDYYMSWVRQPPGKALEWLGFIRNKANGYTTEYSASVKGRFTISRDNSQSILYLQMNTLRAEDSATYYCARDGDGSARWGQGTLVTVSA
notes: Heavy chain only, with no light chain; tested as 293T culture supernatant; not shown: mouse IgG1 heavy-chain constant region supplied by vector pFUSE-CHIg-mG1 (invivogen)

Experiments:
[1] = target: T1, 纯化的ENO2蛋白 (coating protein of the Example 7 ELISA) (human, UniProt P09104 1-434); test: ELISA, ENO2-coated plate (100 ng/well), 293T supernatant, HRP anti-IgG / anti-kappa secondary
T1 construct: also called 抗原ENO2
T1 sequence (P09104 whole entry): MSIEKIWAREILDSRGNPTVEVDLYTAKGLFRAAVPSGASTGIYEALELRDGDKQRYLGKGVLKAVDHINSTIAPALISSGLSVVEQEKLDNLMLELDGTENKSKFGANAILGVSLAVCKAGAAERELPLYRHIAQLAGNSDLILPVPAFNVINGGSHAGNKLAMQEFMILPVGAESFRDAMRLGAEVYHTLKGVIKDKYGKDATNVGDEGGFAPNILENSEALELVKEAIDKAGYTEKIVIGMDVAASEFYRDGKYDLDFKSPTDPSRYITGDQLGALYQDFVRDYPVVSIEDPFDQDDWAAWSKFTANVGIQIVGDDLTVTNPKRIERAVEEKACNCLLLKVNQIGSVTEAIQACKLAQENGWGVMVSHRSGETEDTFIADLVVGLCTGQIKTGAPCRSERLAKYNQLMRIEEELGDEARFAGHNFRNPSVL

[2] = target: T2, ENO2-GST (human ENO2 expressed from pGEX 4t-1, GST-column purified) (human, UniProt P09104 1-434); test: ELISA screening of hybridoma supernatants on ENO2-GST coated plates
T2 construct: Expressed in E. coli BL21(DE3) and used to coat ELISA plates at 100 ng/well; also called pGEX 4t-1载体表达的ENO2; ENO2-4t-1; not shown: GST tag supplied by vector pGEX 4t-1
T2 sequence (P09104 whole entry): as above

[3] = target: T3, ENO2flag (ENO2 with C-terminal flag tag, pcDNA3.1, expressed in 293T cells) (human, UniProt P09104 2-434, limits assumed); test: Western blot, lysate of 293T cells transfected with ENO2flag-pcDNA3.1, hybridoma supernatant
T3 construct: Tested as a lysate of transfected 293T cells (Western blot) and in acetone-fixed transfected 293T cells (immunofluorescence); also called ENO2flag-pcDNA3.1; ENO2抗原; not shown: C-terminal flag tag
T3 sequence (P09104 2-434 limits assumed): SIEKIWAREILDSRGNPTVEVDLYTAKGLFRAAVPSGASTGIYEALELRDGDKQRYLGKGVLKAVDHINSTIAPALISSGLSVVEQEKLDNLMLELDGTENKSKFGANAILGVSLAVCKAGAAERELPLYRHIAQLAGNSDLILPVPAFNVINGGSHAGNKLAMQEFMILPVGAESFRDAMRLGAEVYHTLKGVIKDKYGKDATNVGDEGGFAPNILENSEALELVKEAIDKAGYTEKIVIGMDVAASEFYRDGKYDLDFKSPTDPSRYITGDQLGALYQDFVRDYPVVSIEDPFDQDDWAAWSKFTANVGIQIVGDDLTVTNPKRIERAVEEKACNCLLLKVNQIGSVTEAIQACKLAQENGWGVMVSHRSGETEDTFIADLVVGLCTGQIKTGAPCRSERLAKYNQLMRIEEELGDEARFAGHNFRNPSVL

Binder | binding result [1] | binding result [2] | binding result [3]
B1 | no binding |  | 
B2 |  | binds | binds
B3 | no binding |  | 
